Sequences and labels used below:
B1: His tag-acVHH-WT anti-caffeine nanobody, soluble (VHH)
VHH: QVQLVESGGGLVQAGGSLRLSCTASGRTGTIYSMAWFRQAPGKEREFLATVGWSSGITYYMDSVKGRFTISRDKGKNTVYLQMDSLKPEDTAVYYCTATRAYSVGYDYWGQGTQVTVSS
notes: Expressed in E. coli; also called AB0; not shown: His tag
B2: M1 ΔAA displayed on yeast (VHH, not shown: large carriers; small tags and cut ends)
chain: B1 VHH with C22A, T50P, G52A, W53L, S54G, S55L, G56Q, I57S, C96A
notes: also called acVHH-M1 C22A C96A
B3: His tag-acVHH-V104D, soluble (VHH, not shown: small tags and cut ends)
VHH: B1 VHH with V104D
notes: also called AB1; Tag-V104D
B4: M1 ΔGW displayed on yeast (VHH, not shown: large carriers; small tags and cut ends)
chain: B1 VHH with C22G, T50P, G52A, W53L, S54G, S55L, G56Q, I57S, C96W
notes: also called acVHH-M1 C22G C96W
B5: M1 ΔWA displayed on yeast (VHH, not shown: large carriers; small tags and cut ends)
chain: B1 VHH with C22W, T50P, G52A, W53L, S54G, S55L, G56Q, I57S, C96A
notes: also called acVHH-M1 C22W C96A
B6: M1 ΔAW displayed on yeast (VHH, not shown: large carriers; small tags and cut ends)
chain: B1 VHH with C22A, T50P, G52A, W53L, S54G, S55L, G56Q, I57S, C96W
notes: also called acVHH-M1 C22A C96W
B7: M1 ΔAV displayed on yeast (VHH, not shown: large carriers; small tags and cut ends)
chain: B1 VHH with C22A, T50P, G52A, W53L, S54G, S55L, G56Q, I57S, C96V
notes: also called acVHH-M1 C22A C96V
B8: M1 ΔFA displayed on yeast (VHH, not shown: large carriers; small tags and cut ends)
chain: B1 VHH with C22F, T50P, G52A, W53L, S54G, S55L, G56Q, I57S, C96A
notes: also called acVHH-M1 C22F C96A
B9: M1 ΔVA displayed on yeast (VHH, not shown: large carriers; small tags and cut ends)
chain: B1 VHH with C22V, T50P, G52A, W53L, S54G, S55L, G56Q, I57S, C96A
notes: also called acVHH-M1 C22V C96A
B10: acVHH-V104D displayed on yeast (Aga2p-HA-tag-(Gly4Ser)3 linker-acVHH-V104D-c-myc tag) (VHH, not shown: large carriers; small tags and cut ends)
VHH: B1 VHH with V104D
B11: M1 ΔWP displayed on yeast (VHH, not shown: large carriers; small tags and cut ends)
chain: B1 VHH with C22W, T50P, G52A, W53L, S54G, S55L, G56Q, I57S, C96P
notes: also called acVHH-M1 C22W C96P

The target in assay [1] is T1, acVHH-WT displayed on yeast (Aga2p-HA-tag-(Gly4Ser)3 linker-acVHH-WT-c-myc tag).
T1 construct: Yeast surface display fusion on S. cerevisiae EBY100
Nature of the assay: yeast surface display; 400 nM soluble acVHH-WT, caffeine titrated (data of FIG. 3I); mean ± S.D. From the text:
(§1) Measured with yeast display and normalized to maximum binding signal (n=3, averages±standard deviations).

Assay [2] deals with B3. Nature of the assay: yeast surface display, flow cytometry (n=1).
For assay [3], the target named is T1, acVHH-WT displayed on yeast …. In words: yeast surface display, flow cytometry; soluble acVHH-V104D with 10 µM compound or without. As for the experimental part:
Expression of the acVHH variants on yeast was induced by culturing the cells in SG-CAA medium (20 g/L galactose, 2 g/L glucose, 6.7 g/L yeast nitrogen base, 5 g/L bacto casamino acids, 10.2 g/L Na₂HPO₄*7 H₂O, 8.56 g/L NaH₂PO₄*H₂O) overnight at 20° C. and 180 rpm. Detection of full-length proteins on the surface of the cells was carried out by staining the cells with anti-c-myc AlexaFluor 488 (9E10, Thermo Fisher).

Assay [4] deals with B10. Nature of the assay: yeast surface display, flow cytometry; soluble acVHH-V104D with and without 10 µM caffeine. As for the experimental part: (§2) The staining for flow cytometry characterization was performed in PBSA (PBS containing 15 μM bovine serum albumin). […] After a final washing step, the cells were analyzed with a CytoFLEX S flow cytometer (Beckman Coulter).
The target of assay [5] is B7. Nature of the assay: yeast surface display, flow cytometry; soluble acVHH-V104D with and without 10 µM caffeine (n=1).
The target in assay [6] is B6. Described as above.
Assay [7] addresses B8. The description is as above.
Assay [8] addresses B4. Described as above.
Assay [9] addresses B9. The assay is described as above.
For assay [10], the target named is B5. The assay is described as above.
Assay [11] deals with B11. The description is as above.
The target of assay [12] is B2. Described as above.
For assay [13], the target named is T2, acVHH-M1 displayed on yeast (Aga2p-HA-tag-(Gly4Ser)3 linker-acVHH-M1-c-myc tag).
T2 construct: also called AB2
Nature of the assay: yeast surface display; 400 nM soluble acVHH-V104D, caffeine titrated (data of FIG. 3I); mean ± S.D. As for the experimental part:
(§3) Expression of the variants on yeast was carried out in SG-CAA as described above.
as §1

Assay [14] addresses T3, dfM1-1 displayed on yeast (Aga2p-HA-tag-(Gly4Ser)3 linker-dfM1-1-c-myc tag).
T3 construct: also called disulfide free M1 variant
The assay is described as above. As for the experimental part: as §3, §1

For assay [15], the target named is T4, dfM1-2 displayed on yeast (Aga2p-HA-tag-(Gly4Ser)3 linker-dfM1-2-c-myc tag).
T4 construct: also called disulfide free M1 variant
The description is as above. As for the experimental part: as §3, §1

For assay [16], the target named is T2, acVHH-M1 displayed on yeast …. In words: yeast surface display titration with soluble acVHH-V104D, 30 µM caffeine, signal normalised to the maximum.
Assay [17] has as its target T3, dfM1-1 displayed on yeast …. The assay is described as above.
Assay [18] concerns the target T4, dfM1-2 displayed on yeast …. Described as above.
In assay [19] the target is T2, acVHH-M1 displayed on yeast …. In words: yeast surface display titration with soluble acVHH-V104D, + caffeine (30 µM, data of FIG. 3H); mean ± S.D.
In assay [20] the target is T3, dfM1-1 displayed on yeast …. The assay is described as above.
In assay [21] the target is T4, dfM1-2 displayed on yeast …. Described as above.
Assay [22] addresses B3. In words: yeast surface display, flow cytometry. As for the experimental part:
as §2

Numbering of substitutions follows the chain as printed. In names and notes the source's numbering stands.

T1 sequence (chain, as listed by the source): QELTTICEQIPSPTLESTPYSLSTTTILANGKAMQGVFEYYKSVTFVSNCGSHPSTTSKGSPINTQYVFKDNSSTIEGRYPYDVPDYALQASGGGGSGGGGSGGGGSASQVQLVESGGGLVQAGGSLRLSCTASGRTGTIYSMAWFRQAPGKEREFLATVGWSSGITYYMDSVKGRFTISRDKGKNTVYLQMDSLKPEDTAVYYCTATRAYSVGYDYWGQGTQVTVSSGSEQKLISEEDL

Turning to B1, in [1], the “EC50,YSD (caffeine concentration for half-maximal dimerisation)” value was 4300 nM.
In the case of B2, the binding result in assay [2] is recorded as “no binding”.
In the case of B3, the binding result in assay [3], in assay [4], in assay [5], in [6], in [7] and in assay [8] was “no binding (tested: 500 nM)” in each case. In addition, the binding result in assay [9], in assay [10], in assay [11] and in [12] was “no binding (tested: 500 nM)” throughout. Further, the “EC50,YSD (caffeine concentration for half-maximal dimerisation)” value in [13] amounted to 104000 nM; in [14] it was 83000 nM; in [15], 124000 nM. The “EC50 (read off the curve)” value in [16] is around 30 nM; in [17] it was around 20 nM; in assay [18], around 20 nM. Further, the results for the Kd in [19], in assay [20] and in [21] were 30 nM, 18.8 nM and 21.8 nM, respectively.
For B4, the binding result in [2] is recorded as “no binding”.
Turning to B5, in [2], the binding result is “no binding”.
The same measure, in the same setting: for B6 the value was “no binding”.
Regarding B7, the binding result in [2] is “no binding”.
Still for that read-out and setting: for B8 the value was “no binding”; for B9, “no binding”.
For B10, in assay [22], the binding result is reported as “no binding”.
Regarding B11, in assay [2], the binding result is “no binding”.

(Values after patent publication US20240400722A1 (MILTENYI BIOTEC B V, published 2024).)
